According to patent US20120282177A1 (published 2012):

The binders below were run against T1, Tyrosine-protein kinase transmembrane receptor ROR1 (Long Isoform), human, on the cell surface (human, UniProt Q01973 30-937) (assay: flow cytometry on A549 cells (FIG. 5a)).
T1 construct: Endogenous ROR1 on the human cell lines A549, HT29, H69 and HEK293 and on CLL cells from a patient; also called cell-surface human ROR1; full-length ROR1
Description: (§1) The specificity of antibodies against the ROR1 selected in Example 6 was tested by flow cytometry. To test the ability of the antibodies to bind to the cell surface ROR1 protein, the antibodies were incubated with the ROR1-expressing cells, A549, from human lung adenocarinoma. Cells were washed in FACS buffer (DPBS, 2% FBS), centrifuged and resuspended in 100 μl of the diluted primary ROR1 antibody (also diluted in FACS buffer). The antibody-A549 complex was incubated on ice for 60 min and then washed twice with FACS buffer as described above. The cell-antibody pellet was resuspended in 100 μl of the diluted secondary antibody (also diluted in FACS buffer) and incubated on ice for 60 min on ice. The pellet was washed as before and resuspended in 200 μl FACS buffer. The samples were loaded onto the BD FACScanto II flow sytometer and the data analyzed using the BD FACSdiva software. The binding of ROR1_A3, ROR1_A1, ROR1_A8 and ROR1_A14 to ROR1 expressed on A549, H69 (human small cell lung carcinoma) and HT29 (colon carcinoma) cells were also analysed using flow cytometry.

T1 sequence (Q01973 30-937 limits assumed): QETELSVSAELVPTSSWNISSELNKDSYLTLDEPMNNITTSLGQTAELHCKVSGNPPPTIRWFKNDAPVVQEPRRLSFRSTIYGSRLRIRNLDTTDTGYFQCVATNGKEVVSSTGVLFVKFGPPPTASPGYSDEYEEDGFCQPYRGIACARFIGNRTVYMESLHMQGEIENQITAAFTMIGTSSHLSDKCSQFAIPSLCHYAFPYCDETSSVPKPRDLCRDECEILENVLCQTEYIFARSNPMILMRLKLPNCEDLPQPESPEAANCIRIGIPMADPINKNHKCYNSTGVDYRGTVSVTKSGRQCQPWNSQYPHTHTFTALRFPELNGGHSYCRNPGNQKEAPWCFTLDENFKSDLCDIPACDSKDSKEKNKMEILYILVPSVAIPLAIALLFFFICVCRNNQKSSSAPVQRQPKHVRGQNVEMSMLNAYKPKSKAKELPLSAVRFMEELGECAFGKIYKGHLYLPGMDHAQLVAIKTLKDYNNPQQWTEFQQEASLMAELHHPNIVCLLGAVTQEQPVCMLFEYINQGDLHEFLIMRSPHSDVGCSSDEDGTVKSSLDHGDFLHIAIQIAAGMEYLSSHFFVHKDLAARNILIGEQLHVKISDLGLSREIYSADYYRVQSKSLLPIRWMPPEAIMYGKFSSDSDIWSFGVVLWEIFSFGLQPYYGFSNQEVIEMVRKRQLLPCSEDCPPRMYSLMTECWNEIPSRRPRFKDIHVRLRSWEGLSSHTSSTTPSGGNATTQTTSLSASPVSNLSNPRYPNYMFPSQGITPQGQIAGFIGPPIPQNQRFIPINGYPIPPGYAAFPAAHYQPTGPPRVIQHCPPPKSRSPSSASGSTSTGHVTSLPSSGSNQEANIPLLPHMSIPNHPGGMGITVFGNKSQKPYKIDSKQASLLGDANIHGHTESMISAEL

Binder	binding result
ROR1_A2 (Fab, V domains shown, The entries are called 'variable region' but as printed hold leader, V domain, constant domain and tag) VH: EVQLLETGGGLVKPGGSLKLSCAASGFTFSTYAMSWVRQTPEKRLEWVAGINSNRGTTYYPDTVKGRFTISRDNAKNTLSLQMTSLRSEDTALYYCVRHRYTNYDYAMDYWGQGTSVTVSS VL: DIKMTQSPSSMYASLGERVTITCKASQDINSYLSWFQQKPGKSPKTLIYRANRLVDGVPSRFSGSGSGQDYSLTISSLEYEDMGIYYCLQYDEFPYTFGGGTKLEIKR	binds
ROR1_A9 (Fab, V domains shown, The entries are called 'variable region' but as printed hold leader, V domain, constant domain and tag) VH: EVQLVETGGDLVKPGGSLKLSCVASGFTFSSNAMSWVRQTPEKRLEWVAAINSKGGGTYYPDTVRGRFTISRDNAKNTLYLQVTSLRSEDTALYYCVSHGDNKYFYAMDYWGQGTSVTVSS VL: NIVMTQSPSSMYASLGERVTITCKASQDINSYLSWFQQKPGKSPKTLIYRANRLVDGVPSRFSGSGSGQDYSLTISSLEYEDMGIYYCLQYDEFPYTFGGGTKLEIKR	binds
ROR1_A6 (Fab, V domains shown, The entries are called 'variable region' but as printed hold leader, V domain, constant domain and tag) VH: EVMLVESGGGLVKPGGSLKLSCAASGFTFSPYAMSWVRQTPEKRLEWVAAINSNRGTTYYPDTVKGRFTISRDNAKNTLYLQMSSLRSEDTAFYYCVRHRYNNYDYAMDYWGQGTSVTVSS VL: DIVMSQSPSSMYASLGERVTITCKASQDINSYLSWFQQKPGKSPKTLTYRANRLVEGVPSRFSGSGSGQDYSLTISSLEYEDMGIYYCLQYDEFPYTFGGGTKLEIKR	binds
ROR1_A7 (Fab, V domains shown, The entries are called 'variable region' but as printed hold leader, V domain, constant domain and tag) VH: EVMLVESGGGLVKPGGSLKISCAASGFSFSSYAMSWVRQTPEKSLEWVAAININRGTPYYPDTVKGRFTISRDNAKNTLYLQMSSLRSEDTALYYCVRHRNSNNDYAMDYWGQGTSVTVSS VL: DIVMTQSPSSMYTSLGERVTITCKASQDINSYLSWFQQKPGKSPKTLIYRANRLIDGVPSRFSGSGSGQDYSLTISSLEYEDMGIYYCLQYDEFPFTFGSGTKLEIKR	binds
ROR1_A5 (Fab, V domains shown, The entries are called 'variable region' but as printed hold leader, V domain, constant domain and tag) VH: EVKLVESGGGLVKPGGSLKLSCAASGFTFSNYDMSWVRQSPEKRLEWVAAINRKGHSTYYPDTVQGRFTISRDNAKNTLYLQMSSLRSEDTALYYCVRLDDNYYFFDYWGQGTTLTVSS VL: DIKMTQSPSSMYASLGERVTITCKASQDINSYLSWFQQKPGKSPKTLIYRAKRLIDGVPSRFSGSGSGQDYSLTISSLEYEDMGIYYCLQYDEFPYTFGGGTKLEIKR	binds
ROR1_A3 (Fab, V domains shown, The entries are called 'variable region' but as printed hold leader, V domain, constant domain and tag) VH: DVMLVESGGGLVKPGGSLKLSCAASGFTFSSYAMSWVRQTPEKRLEWVAAININRGTTYYSDTVKGRFTISRDNAKNTLYLQLSSLRSEDTALYYCSRHRYSDYDYAMDYWGQGTSVTVSS VL: DIQLTQSPSSMYASLGERVTIACKASQDINSYLSWFQQKPGKSPKTLIHRANRLVDGVPSRFSGSGSGQDYSLTISSLEYEDIGIYYCLQYDEFPYTFGGGTKLEIKR	binds
ROR1_A4 (Fab, V domains shown, The entries are called 'variable region' but as printed hold leader, V domain, constant domain and tag) VH: EVKLVESGGGLVKPGGSLKLSCAASGFTFSNYGMSWVRQTPERRLEWVAAMNNNGASTYYPDTVKGRFTISRDNAKNTLYLQMSSLRSEDTALYFCVRHNNYVDYAMDYWGQGTSVTVSS VL: DILLTQSPSSMYTSLGERVTITCKASQDINSYLSWFQQKPGKSPKTLIYRANKLVDGVPSRFSGSGSGQDYSLTISSLESEDMGIYYCLQYDEFPYTFGGGTKLEIKR	binds

The binders below were run against T1, Tyrosine-protein kinase transmembrane … (assay: flow cytometry, legend of FIGS. 5a and 5b (members and cell lines per antibody named in paragraph 474)).
Description: as §1

Binder	binding result
ROR1_A1 (Fab, V domains shown) VH: EVKLVESGGGLVRPGGSLKLSCAVSGFTFSSYAMSWVRQTPEKRLEWVAAINFNRGTTYYSDTVKGRFTISRDNAKNTLYLQLSSLRSEDTAFYYCSRHRYSDYDYAMDYWGQGTSVTVSS VL: DIVMSQSPSSMYASLGERVTITCKASQDINSYLNWFQQKPGKSPKTLIYRANRLVDGVPSRFSGSGSGHDYFLTIRSLEYEDMGIYYCLQYDEFPYTFGGGTKLEIKR	binds
ROR1_A13 (Fab, V domains shown, The entries are called 'variable region' but as printed hold leader, V domain, constant domain and tag) VH: EVQLVETGGGLVKPGGSLKLSCAASGFTFSSYAMSWIRQTPEKRLEWVAGINSNRGTTYYPDTVKGRFTISRDNAKNTLYLQMNSLRSEDSALYYCVRHRYIDYDYAMDYWGQGTSVTVSS VL: NIVMTQSPSSMYASLGERVTIICKSSQDINSYLSWFQQKPGKSPKTLIFRANRLVDGVPSRFSGSGSGQDYSLTISSLEYEDMGIYYCLQYDEFPYTFGGGTKLEVKR	binds
ROR1_A12 (Fab, V domains shown, The entries are called 'variable region' but as printed hold leader, V domain, constant domain and tag) VH: EVQLVESGGGLVKPGGSLKLSCAASGFTFSSYAMSWVRQTPEKRLEWVAAINSNRGTTYYSDTVKGRFTISRDNAKNTLYLQMSSLRSEDTAFYYCTRHRYSDYDYAMDYWGQGTSVTVSS VL: DIKMTQSPSSMYASLGERVTITCKASQDINSYLSWFQQKPGKSPMTLTHRANRLVDGVPSRFSGSGSGQDYSLTISSLENEDMGIYYCLQYDEFPYTFGGGTKLEIKR	binds
ROR1_A14 (Fab, V domains shown, The entries are called 'variable region' but as printed hold leader, V domain, constant domain and tag) VH: QVQLKQSGAELVKPGASVKISCKATGYTFSSYWIEWVKERPGHGLEWIGEILPGIGNTNYNEKFKGKATFTADLSSKTAYMQLSSLTSEDSAVYYCASGGYSTVYWYFDVWGAGTTVTVSS VL: DVVMSQSPSSLAVSTGEKVTLSCKSSQSLLNSRTRKNYLAWYQQKPGQSPKLLIYWTSTRESGVPNRFTGSGSGTDFTLTISSVQAEDLAVYYCKQSYDLPWTFGGGTKLEIKR	binds
ROR1_A10 (Fab, V domains shown, The entries are called 'variable region' but as printed hold leader, V domain, constant domain and tag) VH: EVQLVETGGGLVKPGGSLKLSCAASGFAFSSYAMSWVRQTPEKRLEWVAAINNRGGGTYYPDTVRGRFTISRDNAKNTLYLQMSSLRSADTALYYCVRHDNLNYDYAMDSWGQGTSVTVSS VL: NIVMTQSPSSMYASLGERVTITCKASQDIYSYLSWFQQKPGKSPKTLIYRANRLVDGVPSRFSGSGSGQDYSLTISSLDYEDVGIYYCLQYDEFPYTFGSGTKLEIER	binds
